Data published in article PMC3031960 (Journal of immunology (Baltimore, Md. : 1950), 2010).
Numbered stars: 1 amine (or outer) side, 2 acyl side, 3 side chain; on linkers, the order of the positions; unused ones are H or OH. Square brackets hold non-standard residues; d marks the D form. Ends that are not written are not given here. K(Palm) = CCCCCCCCCCCCCCCC(=O)NCCCC[C@H](N[*:1])C(=O)[*:2]; pY = N[C@@H](Cc1ccc(OP(=O)(O)O)cc1)C(=O)O

Molecular target: T1, pJAK2(1001–1013)
T1 peptide: {K(Palm)}-LPQDKE[pY]YKVKEP
Experiment: ELISA

{K(Palm)}-LRLKTFSSKSEYQLVV [SOCS3-KIR]
binding result: binds

{K(Palm)}-DTHFRTFRSHSDYRRI [SOCS1-KIR]
binding result: binds
